Publication PMC8683410 (Translational Psychiatry, 2021)
Several values for one entry are separate records, joined by “and”; a condition that tells them apart may be missing. Identical values can stand only once. Values belong to the binder of their own block, whether it stands above or below them.

How the values were obtained:
[1] = target: T1, His6-tagged human DISC1 C-region (residues 691-836) (human), Q9NRI5; experiment: dynamic light scattering; His6-C-region, 10-90 µM at 37 °C; samples centrifuged at 21,000 x g before measurement; details: remark: other sources report otherwise
T1 chain: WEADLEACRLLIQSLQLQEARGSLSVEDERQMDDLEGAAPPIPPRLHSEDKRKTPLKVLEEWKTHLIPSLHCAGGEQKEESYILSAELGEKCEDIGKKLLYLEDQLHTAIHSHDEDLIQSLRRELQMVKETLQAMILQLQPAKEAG

[2] = target: T1, His6-tagged human DISC1 C-region …; experiment: negative-stain transmission electron microscopy; 10 µM protein on carbon-coated copper grids, 1% uranyl acetate; 2D classification and 3D reconstruction (RELION); details: remark: other sources report otherwise
[3] = target: T1, His6-tagged human DISC1 C-region …; experiment: dynamic light scattering; critical concentration of C-region monomers/oligomers in equilibrium with the fibril suspension, taken as the detection limit of the instrument; 1D crystallization model (KF = 1/[C]); details: remark: other sources report otherwise
[4] = target: T1, His6-tagged human DISC1 C-region …; experiment: ITC; no titration: heat flow of the spontaneous association of the protein solution monitored in the cell (iTC-200, 300 rpm); 10-50 µM at 37 °C, 10 µM at 20-60 °C; dH from the peak area normalised to the protein amount; details: remark: other sources report otherwise
[5] = target: T2, MBP-His6-fused human DISC1 C-region (residues 691-836) (human), Q9NRI5; experiment: dynamic light scattering; MBP-tagged C-region in solution at different temperatures (Fig. S1); details: remark: other sources report otherwise
T2 chain: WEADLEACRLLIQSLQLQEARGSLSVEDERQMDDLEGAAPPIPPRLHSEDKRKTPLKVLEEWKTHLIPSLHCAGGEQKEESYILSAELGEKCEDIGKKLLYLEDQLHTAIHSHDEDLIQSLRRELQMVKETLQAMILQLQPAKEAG

NDE-like 1 (NDEL1) [6] = target: T3, NDE-like 1 (NDEL1) (UniProt Q9GZM8 1-345); experiment: SPR; freshly prepared MBP-C-region (representing the monomer) amine-coupled to a CM5 chip (250 RU); analytes 0.75-10 µM without regeneration; 25 °C, PBS pH 7.4 (20 mM Na-phosphate, 150 mM NaCl); equilibrium responses fitted with Hill's equation; details: both partners purified
T3 sequence (Q9GZM8 whole entry): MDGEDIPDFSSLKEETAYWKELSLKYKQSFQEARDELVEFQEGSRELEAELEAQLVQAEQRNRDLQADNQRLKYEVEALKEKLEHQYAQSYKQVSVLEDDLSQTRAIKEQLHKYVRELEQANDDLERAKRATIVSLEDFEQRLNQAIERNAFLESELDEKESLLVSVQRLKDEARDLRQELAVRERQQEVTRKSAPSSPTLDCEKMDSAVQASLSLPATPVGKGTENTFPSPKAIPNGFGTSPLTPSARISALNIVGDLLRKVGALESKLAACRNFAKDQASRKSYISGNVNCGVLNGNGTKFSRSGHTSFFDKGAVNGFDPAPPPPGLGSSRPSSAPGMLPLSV

lissencephaly 1 (LIS1) [7] = target: T4, lissencephaly 1 (LIS1) (UniProt P43034 1-410); experiment: as above; details: both partners purified
T4 construct: lissencephaly 1 (LIS1); source: E. coli C43 (DE3), purified (Ni2+-NTA, Superdex 200 SEC)
T4 sequence (looked up): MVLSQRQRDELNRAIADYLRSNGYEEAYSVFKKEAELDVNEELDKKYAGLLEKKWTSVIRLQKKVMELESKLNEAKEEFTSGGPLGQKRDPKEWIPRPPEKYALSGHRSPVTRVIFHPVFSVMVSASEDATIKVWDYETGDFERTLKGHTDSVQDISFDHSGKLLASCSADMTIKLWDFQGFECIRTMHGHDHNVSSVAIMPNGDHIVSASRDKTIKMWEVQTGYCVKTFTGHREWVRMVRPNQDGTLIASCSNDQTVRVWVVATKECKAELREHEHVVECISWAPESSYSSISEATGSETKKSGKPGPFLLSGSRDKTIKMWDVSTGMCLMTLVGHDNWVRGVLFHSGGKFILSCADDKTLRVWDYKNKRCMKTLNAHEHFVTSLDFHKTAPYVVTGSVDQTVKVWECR

NDE-like 1 (NDEL1) [8] = target: T3, NDE-like 1 (NDEL1); experiment: as above; details: both partners purified; remark: listed apart in the source
lissencephaly 1 (LIS1) [9] = target: T4, lissencephaly 1 (LIS1); experiment: SPR; oligomeric/fibrillar C-region (His-C-region incubated at 4 °C for two weeks, MBP-C-region for two months) amine-coupled to a CM5 chip (250 RU); analytes 0.75-10 µM without regeneration; 25 °C, PBS pH 7.4; equilibrium responses fitted with Hill's equation; apparent affinities; details: both partners purified
NDE-like 1 (NDEL1) [10] = target: T3, NDE-like 1 (NDEL1); experiment: as above; details: both partners purified

B1: His6-tagged human DISC1 C-region (residues 691-836), Q9NRI5 691-836 (domain or fragment)
chain: WEADLEACRLLIQSLQLQEARGSLSVEDERQMDDLEGAAPPIPPRLHSEDKRKTPLKVLEEWKTHLIPSLHCAGGEQKEESYILSAELGEKCEDIGKKLLYLEDQLHTAIHSHDEDLIQSLRRELQMVKETLQAMILQLQPAKEAG
stoichiometry N [1]: 4
stoichiometry N [2]: 4 and 5 and 6
critical concentration (1/KF of fibril formation) [3]: 750 nM
dH [4]: -298 kJ/mol

B4: His6-tagged human DISC1 C-region (residues 691-836) (domain or fragment, UniProt Q9NRI5 691-836, looked up)
chain: WEADLEACRLLIQSLQLQEARGSLSVEDERQMDDLEGAAPPIPPRLHSEDKRKTPLKVLEEWKTHLIPSLHCAGGEQKEESYILSAELGEKCEDIGKKLLYLEDQLHTAIHSHDEDLIQSLRRELQMVKETLQAMILQLQPAKEAG
notes: disrupted in schizophrenia 1 (DISC1), human, C-region, residues 691-836 of full-length human DISC1; Vector pESPRIT002; Theoretical mass of the tagged protein 19.4 kDa; for SPR it was incubated at 4 °C for two weeks (oligomer/fibril); also called His6-C-region; His-C-region; source: E. coli BL21 (DE3) pLysE T1R, purified (Co2+-NTA, Superdex 200 SEC); not shown: His6, N-terminal, kept
Kd (lissencephaly 1 (LIS1) [9]): 31 nM
Kd (NDE-like 1 (NDEL1) [10]): 13 µM

Second part, the binder after the results:

stoichiometry N [5]: 4
B2: MBP-His6-fused human DISC1 C-region (residues 691-836), Q9NRI5 691-836 (domain or fragment)
chain: WEADLEACRLLIQSLQLQEARGSLSVEDERQMDDLEGAAPPIPPRLHSEDKRKTPLKVLEEWKTHLIPSLHCAGGEQKEESYILSAELGEKCEDIGKKLLYLEDQLHTAIHSHDEDLIQSLRRELQMVKETLQAMILQLQPAKEAG

Kd (NDE-like 1 (NDEL1) [6]): 28 µM
Kd (lissencephaly 1 (LIS1) [7]): 71 nM
Kd (NDE-like 1 (NDEL1) [8]): 20 µM
Kd (lissencephaly 1 (LIS1) [9]): 31 nM
Kd (NDE-like 1 (NDEL1) [10]): 14 µM
B3: MBP-His6-fused human DISC1 C-region (residues 691-836) (domain or fragment, UniProt Q9NRI5 691-836, looked up)
chain: WEADLEACRLLIQSLQLQEARGSLSVEDERQMDDLEGAAPPIPPRLHSEDKRKTPLKVLEEWKTHLIPSLHCAGGEQKEESYILSAELGEKCEDIGKKLLYLEDQLHTAIHSHDEDLIQSLRRELQMVKETLQAMILQLQPAKEAG
notes: disrupted in schizophrenia 1 (DISC1), human, C-region, residues 691-836 of full-length human DISC1; Cloned in pET-15b; Used freshly prepared to represent the monomer, and after two months at 4 °C as oligomer/fibril, in SPR; also called MBP-C-region; MBP-C region; source: E. coli (DE3) C43, purified (Co2+-NTA, amylose column); not shown: MBP, N-terminal, kept; His6, N-terminal, kept
